What was measured:
[1] = system: 3T3-TrkA cells; test: NIH-3T3 cell survival (ViaLight); assay type: cell-based, mouse; conditions: serum-free medium, 72-96 h, PTX-BD4-3 1000 nM
Description: (§1) Fig. 2. PTX-BD4-3 promotes cell survival preferentially through TrkB. (A-D) Neurotrophin receptor-expressing NIH-3T3 cells were incubated in culture medium (CM) alone or in medium plus either the indicated neurotrophins (BDNF, NGF, NT-3) or PTX-BD4-3 or its parent compound LM22A-4 for 72-96 h, after which survival was measured using the ViaLight assay. […] Scale bar: 10 μm. (B) Survival dose-response curves for PTX-BD4-3 and LM22A-4 in 3T3-TrkB cells. ^§P≤0.001 compared to CM alone. (C) Representative images of 3T3-TrkA, 3T3-TrkC and 3T3-p75 cells grown in the presence of CM alone, CM+neurotrophin or CM+PTX-BD4-3. Scale bar: 10 μm. NGF, NT-3 and BDNF served as positive controls for 3T3-TrkA, 3T3-TrkC and 3T3-p75 cells, respectively. (D) PTX-BD4-3 (1000 nM) had no effect on survival of 3T3-TrkA, 3T3-TrkC or 3T3-p75 cells compared to medium alone. *P≤0.05, ***P≤0.001 compared to CM alone. For each determination in B and D, n=10-32 wells derived from four to five independent experiments. Statistical significance was determined by one-way ANOVA with Dunnett's post hoc multiple comparison test. (E,F) […] protein was extracted from human cementoblast-like cell (HCEM) cultures treated with either culture medium alone, BDNF, LM22A-4 or PTX-BD4-3, immunoprecipitated with anti-TrkB antibody and then probed sequentially on western blots with anti-Shc and anti-TrkB antibody. The ratio of Shc to TrkB in treated cultures was normalized and compared to control (CM alone) using Kruskal-Wallis ANOVA followed by Dunn's multiple comparisons test (*P≤0.05, ^§P≤0.001). n=13 independent experiments, and each protein sample was run on duplicate western blots and the normalized values averaged. RLUs, relative light units.
(§2) Mouse NIH-3T3 cells expressing TrkA (NIH-3T3-TrkA) were provided by Dr William Mobley (University of California at San Diego, San Diego, CA, USA), and NIH-3T3 cells expressing TrkB (NIH-3T3-TrkB) or TrkC (NIH-3T3-TrkC) were provided by Dr David Kaplan (University of Toronto, Toronto, ON, Canada). Cells were propagated in Dulbecco's modified Eagle medium (DMEM) supplemented with 10% fetal bovine serum (FBS; Invitrogen) and 200-400 µg/ml Geneticin. Cells were seeded into 24-well plates (30,000 cells/well) and cultured in medium consisting of 50% PBS and 50% DMEM without supplements. Following exposure to BDNF (20 ng/ml, 0.7 nM) or 10-1000 nM LM22A-4 or PTX-BD4-3 for 72-96 h, cells were suspended in 50 µl lysis buffer, transferred to white, opaque 96-well culture plates and survival was measured using the ViaLight Assay (Lonza Group, Rockland, ME, USA).

[2] = system: 3T3-TrkC cells; test: NIH-3T3 cell survival (ViaLight); assay type: cell-based, mouse; conditions: serum-free medium, 72-96 h, PTX-BD4-3 1000 nM
Description: as §1, §2

[3] = system: 3T3-TrkB cells; test: NIH-3T3 cell survival (ViaLight); assay type: cell-based, mouse; conditions: serum-free medium, 72-96 h, ViaLight; compounds 10-1000 nM dose-response, BDNF 20 ng/ml
Description: as §1, §2

[4] = system: 3T3-p75 cells; test: NIH-3T3 cell survival (ViaLight); assay type: cell-based, mouse; conditions: serum-free medium, 72-96 h, PTX-BD4-3 1000 nM
Description: as §1, §2

[5] = system: 3T3 parent line, which does not express Trk receptors; test: NIH-3T3 cell survival; assay type: cell-based, mouse; conditions: serum-free medium
[6] = system: TrkB; test: Shc adaptor protein recruitment to TrkB in HCEMs (IP/western blot); assay type: cell-based, human; conditions: 1 h, compounds 1000 nM, BDNF 0.7 nM
Text: Fig. 2. […] Scale bar: 10 μm. […] Scale bar: 10 μm.

[7] = system: E16 mouse hippocampal neurons; test: Hippocampal neuron survival (ViaLight assay and Tuj1-positive cell counts); assay type: cell-based; conditions: compounds 1000 nM, BDNF 20 ng/ml; vs control antibody
Text: To further confirm that PTX-BD4-3 promotes biologically relevant activity through TrkB, we examined the effect of PTX-BD4-3 on survival of cultured hippocampal neurons, using two different methods (Fig. 3A-C). […] It would be expected that although there is a correlation between survival status and mitochondrial metabolic status, one could have some degree of variability in metabolic function for a given level of cell survival. […] Because the plateau effect of PTX-BD4-3 on survival was observed between 500 nM and 1000 nM, we chose 1000 nM as a standard concentration for subsequent mechanistic studies.
Fig. 3. […] (A) Fluorescence photomicrographs (original magnification, ×40) of Tuj1-immunostained E16 mouse hippocampal neuronal cultures treated with culture medium (CM) alone, BDNF, LM22A-4 or PTX-BD4-3 for 48 h. Scale bar: 10 μm. (B) Neuron survival dose-response curves for LM22A-4 and PTX-BD4-3 were generated using the ViaLight assay; data were normalized to survival achieved with 20 ng/ml (∼0.7 nM) BDNF and compared with wells receiving culture medium medium (CM) alone. n=10-32 wells per group derived from four to five independent experiments. (C) Survival analysis of hippocampal neurons treated with either 20 ng/ml BDNF, 500 nM or 1000 nM LM22A-4 or 500 nM or 1000 nM PTX-BD4-3 for 48 h. Tuj1-positive cells counts were normalized to the survival achieved with BDNF and compared with wells treated with […]. n=32-40 wells per group derived from six independent experiments. Statistical significance in B and C was determined by one-way ANOVA with Dunnett's post hoc multiple comparison tests. *P≤0.05, ^§P≤0.001 compared to control (CM). (D) Survival of hippocampal neurons treated with CM, 20ng/ml BDNF (B), 1000 nM LM22A-4 or 1000 nM PTX-BD4-3 with or without anti-TrkB antibody (Bab) or non-immune serum (non). n=37-42 wells per group derived from five independent experiments. *P≤0.05, **P≤0.01, ***P≤0.001 (non vs Bab), Mann-Whitney test; *P≤0.05, ^ψP≤0.01, ^§P≤0.001 (compared to CM), one-way ANOVA with Dunnett's post hoc multiple comparison test.
Hippocampal neuron cultures were prepared from E16 CF1 mouse fetuses as described previously ([Yang et al., 2006]). Under the low-density conditions used here, neuronal survival is dependent, in part, on addition of exogenous neurotrophins ([Yang et al., 2008]; [Walter et al., 2011]). LM22A-4 and PTX-BD4-3 were dissolved in water at a stock concentration of 10 mM prior to dilution (1:10,000) in culture medium. Cell survival following a 48-h exposure to BDNF, LM22A-4 or PTX-BD4-3 was quantified by either counting β-tubulin III-positive cell bodies ([Massa et al., 2006]; [Walter et al., 2011]) or by the ViaLight Assay described above.

Molecule: NGF: neurotrophin, cognate ligand and positive control for 3T3-TrkA cells
- survival of 3T3-TrkA cells [1]: supported survival

B1: NT-3: neurotrophin, cognate ligand and positive control for 3T3-TrkC cells (protein, UniProt P20783 139-257, looked up)
Neurotrophin-3: YAEHKSHRGEYSVCDSESLWVTDKSSAIDIRGHQVTVLGEIKTGNSPVKQYFYETRCKEARPVKNGCRGIDDKHWNSQCKTSQTYVRALTSENNKLVGWRWIRIDTSCVCALSRKIGRT
- survival of 3T3-TrkC cells [2]: supported survival

B2: BDNF: Recombinant brain-derived neurotrophic factor, cognate ligand of TrkB; positive control (protein, UniProt P23560 19-247, looked up)
Neurotrophic factor BDNF …: APMKEANIRGQGGLAYPGVRTHGTLESVNGPKAGSRGLTSLADTFEHVIEELLDEDQKVRPNEENNKDADLYTSRVMLSSQVPLEPPLLFLLEEYKNYLDAANMSMRVRRHSDPARRGELSVCDSISEWVTAADKKTAVDMSGGTVTVLEKVPVSKGQLKQYFYETKCNPMGYTKEGCRGIDKRHWNSQCRTTQSYVRALTMDSKKRIGWRFIRIDTSCVCTLTIKRGR
- survival of 3T3-TrkB cells [3]: supported survival
- survival of 3T3-p75 cells [4]: respond
- survival of the 3T3 parent line [5]: did not support survival
- Shc recruitment to TrkB (ratio of Shc to TrkB) [6]: promoted Shc recruitment to TrkB
- neurotrophic activity in the presence of function-blocking anti-TrkB^ECD antibody [7]: reduction

— PMC7710018, “Restoration of motor learning in a mouse model of Rett syndrome following long-term treatment with a novel small-molecule activator of TrkB” (Disease Models & Mechanisms, 2020)
